Measured values: patent US12156889B2, “Methods of administering mesenchymal stem cells activated by cytokines for enhancing immunosuppression” (Rutgers, The State University of New Jersey, priority 2012, dated 2024)

Test system: T cell hybridoma A1.1 cells
Experiment: T cell hybridoma A1.1 proliferation in co-culture with MSCs
Format: cell-based, mouse
Protocol: FIG. 7. […] MSC cells and T-cell hybridoma A1.1 cell line were co-cultured at a ratio of 1:20. The co-cultures were supplemented with IFNγ+ TNF α, or IL-17A+IFNγ+TNFα. Cell proliferation was measured by the cell density indicated by O.D. 570 nm.
FIGS. 9A, 9B, 9C, 9D, 9E, 9F and 9G. (FIG. 9A). Cloned MSCs were first treated with the indicated combinations of recombinant cytokines IFNγ, TNFα, IL-17A (2 ng/ml each) for 12 hr, then cocultured with CD4^+ T cell blasts at a 1:20 ratio (MSC:T cells), and proliferation was assessed by 3H-thymidine incorporation after an additional 12 hr. (FIG. 9B). The mRNA expression of IL-17 receptor family members in MSCs or Raw 264.7 (Macrophages) were examined by RT-PCR. NC: No RT. (FIG. 9C). Surface expression of IL-17RA was detected by immunofluoresence or flow cytometry in cloned MSCs. (FIGS. 9D and 9E). MSCs were first treated with IFNγ and TNFα with or without IL-17A (10 ng/ml), IFNγ and TNFα were supplemented at different cytokine concentrations, for 12 hr, and then cocultured with CD4^+ T cell blasts (FIG. 9D) or T cell hybridoma A1.1 cells (FIG. 9E) at a ratio of 1:20 for 12 hr. T cell proliferation was measured by 3H-Tdr incorporation. (FIG. 9F). MSCs were first treated with IFNγ and TNFα (2 ng/ml) with graded concentrations of IL-17A, for 12 hr, and then cocultured with T cell hybridoma A1.1 cells at a ratio of 1:10 for 12 hr. T cell proliferation was measured by 3H-thymidine incorporation. (FIG. 9G). MSCs were cocultured with fresh C57BL/6 splenocytes plus anti-CD3, anti-CD28, and antibodies against IL-17A, at a 1:20 or 1:40 ratio (MSCs:splenocytes), for 48 hr, and then cell proliferation was assessed by 3H-thymidine incorporation. Proliferation values represent means±SEM of three wells from a representative of three experiments.
FIGS. 11A, 11B, 11C and 11D. (FIG. 11A) MSCs with Act1 knockdown or control were treated with IL-17A for different time and the phosphorylation levels of IκBα, ERK, p65, JNK were assessed by Western Blot. (FIG. 11B) MSCs with Act1 knockdown or control were treated with IFNγ and TNFα with or without IL-17A (all cytokines supplemented at 5 ng/ml) the protein levels of iNOS and Act1 were assessed by Western Blot. (FIG. 11C) MSCs (Act1 knockdown or control) were treated with different cytokines 12 hr, and iNOS expression was measured by quantitative RT-PCR. mRNA expression values are means±SEM. (FIG. 11D) MSCs (Act1 knockdown or control) were first treated with IFNγ and TNFα with or without IL-17A (all cytokines supplemented at 5 ng/ml) for 12 hr, and then cocultured with T cell hybridoma A1.1 cells at a ratio of 1:10 for 12 hr. T cell proliferation was measured by 3H-Tdr incorporation, taking the proliferation level of A1.1 alone as 100%.
FIGS. 14A and 14B. (FIG. 14A). WT MSCs or auf1^−/− MSCs were first treated with IFNγ and TNFα with or without IL-17A (all cytokines supplemented at 5 ng/ml) for 12 hr, and then cocultured with T cell hybridoma A1.1 cells at a ratio of 1:10 for 12 hr. T cell proliferation was measured by 3H-Tdr incorporation, taking the proliferation level of A1.1 alone as 100%. (FIG. 14B). WT MSCs or auf1^−/− MSCs were first treated with IFNγ and TNFα with or without IL-17A (10 ng/ml), IFNγ and TNFα were supplemented at different cytokine concentrations, for 12 hr, and then cocultured with T cell hybridoma A1.1 cells at a ratio of 1:10 for 12 hr. T cell proliferation was measured by 3H-Tdr incorporation, taking the proliferation level of A1.1 alone as 100%. […]

B1: IL-17A: recombinant mouse interleukin 17A (protein)
chain: AAIIPQSSACPNTEAKDFLQNVKVNLKVFNSLGAKVSSRRPSDYLNRSTSPWTLHRNEDPDRYPSVIWEAQCRHQRCVNAEGKLDHHMNSVLIQQEILVLKREPESCPFTFRVEKMLVGVGCTCVASIVRQAA
enhancement of immunosuppression in absence of Act1 (5 ng/ml, A1.1 1:10): not seen | IL-17A concentration sufficient to elicit a dramatic decrease in T cell proliferation (IFNγ and TNFα 2 ng/ml each, 12 hr, A1.1 1:10): 0.5 ng/mL | T-cell proliferation in MSC-T cell co-culture (MSC:A1.1 1:20, O.D. 570 nm): enhanced the suppression | immunosuppressive activity of wild-type MSCs (with IFNγ+TNFα, A1.1 1:10): increased the immunosuppressive activity | immunosuppressive effect of auf1−/− MSCs (with IFNγ+TNFα, A1.1 1:10): did not further enhance
